For one substance, change in anisotropy (Δr) results are on record in publication PMC3767169.

This experiment deals with complement C1q (human) (UniProt P02745). Kind of experiment: fluorescence polarisation.
Chain of UniProt P02745 (P02745 23-245, chain 1 of 3): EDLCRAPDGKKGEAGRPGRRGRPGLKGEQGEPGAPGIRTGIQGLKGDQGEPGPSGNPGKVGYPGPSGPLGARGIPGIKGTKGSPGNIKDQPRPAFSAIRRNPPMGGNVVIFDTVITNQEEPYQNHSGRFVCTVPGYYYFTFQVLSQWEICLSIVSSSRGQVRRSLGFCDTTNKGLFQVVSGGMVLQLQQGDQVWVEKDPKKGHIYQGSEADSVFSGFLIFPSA
Chain of UniProt P02745 (P02746 28-253, chain 2 of 3, further chain): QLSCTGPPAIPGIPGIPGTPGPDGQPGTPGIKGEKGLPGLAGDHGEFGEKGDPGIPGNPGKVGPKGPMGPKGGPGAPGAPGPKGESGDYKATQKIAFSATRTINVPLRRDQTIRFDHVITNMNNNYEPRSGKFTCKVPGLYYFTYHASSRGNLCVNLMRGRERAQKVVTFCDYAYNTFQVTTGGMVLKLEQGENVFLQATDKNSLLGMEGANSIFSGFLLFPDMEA
Chain of UniProt P02745 (P02747 29-245, chain 3 of 3, further chain): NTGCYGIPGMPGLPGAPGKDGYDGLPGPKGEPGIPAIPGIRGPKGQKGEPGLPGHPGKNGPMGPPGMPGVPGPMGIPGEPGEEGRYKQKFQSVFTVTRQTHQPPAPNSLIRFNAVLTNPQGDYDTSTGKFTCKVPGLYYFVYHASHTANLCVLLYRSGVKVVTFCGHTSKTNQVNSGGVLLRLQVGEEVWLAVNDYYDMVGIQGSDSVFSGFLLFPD

Substance “modified C-reactive protein (mCRP) (from UniProt P02741 19-224) (natural protein)” yielded a change in anisotropy (Δr) of 0.081.
